Drawing on patent EP4782465A1, this text covers Human insulin receptor subtype B activity (EC50) for one molecule.

The test concerns the target Human insulin receptor subtype B (human), P06213. Kind of test: cell-based or functional assay.

B1: Fusion protein 1 (insulin analog 1 + L2 + IgG2 Fc1) (Fc fusion)
chain: FVNQHLCGEHLVEALYLVCGERGFHYGGGGGGSGGGGGIVEQCCESICSLEQLENYCGGGGGQGGGGQGGGGQGGGGGECPPCPAPPVAGPSVFLFPPKPKDTLMISRTPEVTCVVVDVSHEDPEVQFNWYVDGVEVHNAKTKPREEQFNSTFRVVSVLTVVHQDWLNGKEYKCKVSNKGLPAPIEKTISKTKGQPREPQVYTLPPSREEMTKNQVSLTCLVKGFYPSDIAVEWESNGQPENNYKTTPPMLDSDGSFFLYSKLTVDKSRWQQGNVFSCSVMHEALHNHYTQKSLSLSPG
In turn, B1 gave a Human insulin receptor subtype B activity (EC50) of 422 nM.
